{"source": "the DeepSol protein solubility set"}
{"assay": "soluble on expression in E. coli; label from the status in PepcDB or PDB records"}
{"sequence": "MSGWNVNASSFVPNANARPFVPGQPYTPQPEQAAPEPTEDWEAQADTSPAAVQPEVAEPVAVQESAPVAPVSATEAPKKEPTPEEDLVAPLAKKFQRTVYVDDGTHKEHINMVFVGHVDAGKSTIGGQLMFLTGMVDKRTLEKYEREAKEKGRESWYLSWCMDTNDEEREKGKTVEVGRAYFETEKRHFTILDAPGHKSFVPNMIVGANQADLAVLVISARRGEFETGFDRGGQTREHSMLVKTAGVKHLVILVNKMDDPTVKWEEERFKEIEGKLTPFLRKLGFNPKTDITYVPCSGLTGAFIKDRPTGSEGNWYSGPCFIEFIDVLLPSYKRDFNGPVRCTVAEKYSEMGTVIIGKMESGCVQKGDTLVVMPNKQPVQVLQIWADDVETERVVAGDNIKFKLKGIEENELQGGFIICSPDSLAKTGRVFDAEVLVLEHRSIIASGYSCVLHIQSAVEEVTVKGVIATIDKKTGEKKRAKFVKQDEKCIMRLESPEPFVLEPFKEYPYLGRFTLRDEGKTIAIGKVLKVVE", "soluble on expression in E. coli": "not soluble"}
{"sequence": "MSGYDRALSIFSPDGHIFQVEYALEAVKRGTCAVGVKGKNCVVLGCERRSTLKLQDTRITPSKVSKIDSHVVLSFSGLNADSRILIEKARVEAQSHRLTLEDPVTVEYLTRYVAGVQQRYTQSGGVRPFGVSTLIAGFDPRDDEPKLYQTEPSGIYSSWSAQTIGRNSKTVREFLEKNYDRKEPPATVEECVKLTVRSLLEVVQTGAKNIEITVVKPDSDIVALSSEEINQYVTQIEQEKQEQQEQDKKKKSNH", "soluble on expression in E. coli": "soluble"}
{"sequence": "MSHDSSGEYMVSQVLKCVKFKDLVRKALNAEAKFSPASVEYDKRRHSKYAYLVHWRGYDWKERTWEPEENLENCEELQKFKERNNMSLDHLTFEHHYEHSTWRRISLASEKCVTNRYLKTDDEIEEKRARKKAKLEEQNRKEQAKNPHASAETEPAVKKKKIEGVGSRIPKISDREGAGTSGQSSSNVSTPGITPLDNKTPRMQKKSNEIGQASTPECAIATLSIGTPQPSIIDSTYDQSDIANGSTSPQPQPVFKRKMNGQDVSDYSVHQGGTFSDGSAIEGSTSRESEDMDCTQETKKALQKAIESAREECEEIEKTIKKYPLQVTSSRVVTGFSPALTLRKFRRCQSLEMLSDHFNNNAEMEIFGKNFENSVRLDADAKPVVIKIYPQEQELFLTKQRKMPSLEMEQLVYENLVKENANNIKIAMHNIRPDKNFAQLLECLSHAYSKDDNIRFETIFNEGFPPSDEYDCRRFQAIVFLIAYCKHRLWKADPKGMAIVEASDAVKEGEIREQQIICSDRHRKCAWLQVFLKLMPDRFKFLETSGQCYHGWEGDDGPFRDDVFFHCMKYGAECQKRLFLDFNKPIGIQEETVGDYSVDAMHLLAVQYGNIQRIPSYLSIGGLDINALATHLPTKRVMRLQHYLKVWIEAHKSETTATEDRKKYYRYLNDVIRLTSESLEIFLENEVTKMIFSRMGGRWKIRMDLTYPHILRCSPLSNKSNGGDGTHQVLSCLFYPEAIGYRDGLENSKGADTEKIDELKTSQKRYKKMIEEGKGRLVLALYRIDIEFRCNLAEKEQFSLPKFTLIESDDGFKIEKLTLLRQTEGLTCYEADIGMFEMTPFSSPGCRYFGISDKAHEKDLVVPGNAHIEMRAEVDQPISFVTQLFFIKKNV", "soluble on expression in E. coli": "not soluble"}
{"sequence": "MSHLRIPANWKVKRSTPFFTKENVPAALLSHHNTAAGVFGQLCVMEGTVTYYGFANETATEPEVKVVINAGQFATSPPQYWHRVELSDDARFNIHFWVEEDHQGEEMYQQKKA", "soluble on expression in E. coli": "not soluble"}
{"sequence": "MSHPWRSRGEKRTIMFGYTPSDTILKYLKDMRDLINRAILNAYSIARSNDDSLPSPITLRRSLKDYYDNNVAYAKHHINPVCRTAIAMLRSYKKNNGRLKVVKAKRLAMRIDSELAKIEDNRLRITIRPNVYEYVDIVDRNKKYSEYSKYPISEVLLTDNRVYITFITGSDDKPVIANNIIGFDLNFKSVDYTVIKDNRIAYVDSIDTYDIAKTQRDYERKRRKIQKHIRNPAKRIRKLKEAKHRQRNIVRDKLQKLTTNIVKNNEDKTFVFEDLTNIKKKGKKHKDHKRDGQSSKRFRTDINRWPYRLFQMFVEYKSKNETLYVDPEGTSSECPVCGGILEHPIWKMSKCDNCGATFDRDRLSSLSIAVRGLHLCGTPFSVSGSASWDSMKDNYLYRLEHHHHHH", "soluble on expression in E. coli": "soluble"}
{"sequence": "MSHQSPPIAEVDATDDMHEALFAKRGCCFLMPCLASSQPSTRGGSVWWQRITTVDKLEPDERWWIRGWRRMREWSELVAGPRWKTYIRRFGRSNCCGGGGGRVGNSSGGCGGGAMPNRSSDQGKFRYDQLSYSLNFDDGNQTGHFDDEFPYRDYSMRFAAPSLPVSTKCSIDFDSDIDNK", "soluble on expression in E. coli": "soluble"}
{"sequence": "MSHRSPSVTPAVSVLIPAWNAVRHLPAALDGLLSQTFQDWEAVVVDDGSQDETPALLAAYAARDARIRPLHVEHGGIVHALNHGLLHVRGRHVARMDADDTCHPERLALQCHALDNAPHLGLVASRVTFGGDAAQCGGFVRYVDWTNSLLCHEDIALGRFRESPLVHPSVMFRRELIDRFGPYANGPFPEDYELWLRWLEAGVRMEKLPEHLLVWNDPPGRLTRTHDNYAEAGFVALRTRYLARWLCAHNPQHPDVWVIGAGKASRRRARPLCEHGIRIRAWVDIDPHKIGNIVEGLPVVGREAMPAPGQGFMLAFLAGHGAAEELELFLHGAGYLPGQDYLLASLEHHHHHH", "soluble on expression in E. coli": "soluble"}
{"sequence": "MSIESSATPTTPNAEALQLNSTEVRILGCLIEKQATNPETYPLTLNALVIACNQKTSRDPVMNLTQGQVGQSLRALEGRGLTRLVMGSRADRWEHKVDKGLELVPAQVILTGLLLLRGPQTVSELLTRSNRMHDFEDSEQVVHQLERLIARGLATLVPRQSGQREDRYMHLIGDPEDLQDLLAARQQAPERGNAASPAATQRLDELEARIAALEERLARLE", "soluble on expression in E. coli": "not soluble"}
{"sequence": "MSIEVGNKLKGKVTGIKKFGAFVELPEGKSGLVHISEVADNYVENVEEHLSVGDEVDVKVLSIADDGKISLSIKKAKDRPRRQHTSKPSHQKPVQKAEDFEKKLSNFLKDSEDKLTSIKRQTESRRGGKGSRR", "soluble on expression in E. coli": "not soluble"}
{"sequence": "MSILVKNNIHWVGQRDWEVRDFHGTEYKTLRGSSYNSYLIREEKNVLIDTVDHKFSREFVQNLRSEIDLADIDYIIINHAEEDHAGALTELMAQIPDTPIYCTANAIDSINGHHHHPEWNFKVVKTGDTLDIGNGKQLIFVETPMLHWPDSMMTYMTGDAVLFSNDAFGQHYCDERLFNDEVDQTELFEQCQRYYANILTPFSRLVTPKITEILGFNLPVDMIATSHGVVWRDNPTQIVELYLKWATDYQEDRITIFYDTMSNNTRMMADAIAQGINEVDPNVAVKIFNVARSDKNEILTNVFRSKGVLVGTSTMNNVMMPKIAGLVEEMTGLRFRNKRASAFGSHGWSGGAVDRLSTRLQDAGFEMSLSLKAKWRPDLDALELCRQHGRDIARQWALAPLPETTQQIAPVEETITCTAADLGPKMQCSVCQWIYDPALGEPLQDVAPGTPWNDVPDNFLCPECSLGKDVFDVLATEAK", "soluble on expression in E. coli": "not soluble"}
{"sequence": "MSINGISGASPLVALQGPSASQRPEPVSSTDRAQAPAFSERLGSALEGLAKSQTEAAEKASAFERGEGGNLAEVMVSQQVSSLGFQLALNVRNKALGAYRDIMNMPV", "soluble on expression in E. coli": "not soluble"}
{"sequence": "MSINIEQAIIHEISQDSQGQLRCRLRPQPLLNGQAVEMMLEELHQTYTSKSGKGFGYFGIHGDDGEANPAFANALKEYRAGDLGFVEFTGQASKLLQEELAKYDFSQGGFLLMSCYTSMASDYLFVALLSAKSSMTVLDDMELSQNNHLDLNNIQLAARIDLTELQADKDSRKYISFIRGRAGRKVADFFLDFMGCVEGVNTKAQNKTLMNAVEDFVASSDLTKEERQQCRNKVFEYCSERFDEGADIEIKDLADELADQGMESFYDFARGGSYELDEEFPADKSTLRQLKKFSGTGGGVTISFDGGHLGQRVIYDPISDTILIKGVPANLKDQLDRRLKGE", "soluble on expression in E. coli": "soluble"}
{"sequence": "MSINTSGKITSATERADSADFRTIIRNKIPLMDVRAPVEFGKGAFDLSINYPLMNNDERADVGICYKQNGQEAAIKLGNALVSGQSKARRLTQWQTFARENPQGYLYCFRGGLRSQTVQRWLKESGINYPLITGGYKALRQFLLNELEQLALHPLTILAGNTGSGKTPFLAHCANSLDLEGAAGHRGSSFGSFVTPQSNQINFENKLAEQYIRGDFSLEQRLVLEDEGRLIGSVHLPESLRNAMTLAPLVVIEESLEYRLEQIYQEYIIKMTAQYQAAYGVEQGFTAFSEYLEHGLFKVRKRLGTQRYGQLKEIQSTALTQQNKGQPQYHLDWLKPLLSEYYDPMYQYQLGLKSDRVIFRGNNSECLAFLRD", "soluble on expression in E. coli": "not soluble"}
{"sequence": "MSIPITVKTVADLIIGEKGIICGFTDEETSLKLLEMGCLPGCEIELDRKAPLGDPICINVCGYTLSMRLEEASTILLSLEHHHHHH", "soluble on expression in E. coli": "not soluble"}
{"sequence": "MSISTIRRQVKNVAYNFSDAQVKVREATSNDPWGPSTALMSEIADLTHNPMAFTEIMSIVWKRLNDSGKNWRHVYKSLVLLDFLIKCGHEKVAQQCRENVFTIETLKDFQHVEDNRDQGLNIREKAKQITSLLSDDERLKNERTRFILTRNKFKQNNPGPVGAESRRSNRHHVTDASLDPEYEDARPSTATEEEMQLQIALALSREECEKADEMRKSDDARLQMALEESQKLQDADRLATTKQGTVSSGQLTQSALDDLLSLGVGELVSGNNDQPSSSSAWGMNDPWGAPQASASLNTNDQMFANSMSNNDPWATSTVAQPVAATAPNSDPFASWDAPAPAATTPSTMPTSSSFDLLGGDLLSPTNSLSANINTNNSTNGTRKTPENFLGENSNLVNLDNLLGSGTPSTTGGNPFLTGAAPANANPFAAQQRKSPTLNEMRAAQGQAPPIPSMAPRGTLPQANPFANPF", "soluble on expression in E. coli": "not soluble"}
{"sequence": "MSITHLMRQQVEELFKRFLEKTGLSEEATVYAVFIPKEEEVDEESVDVFEQRVNPKDAESVENFVSRLTKVALENDVKELKLYALVLDRDGETLIIAREENPEADEVIKELIERMKEEV", "soluble on expression in E. coli": "not soluble"}
{"sequence": "MSIWQRVSFTHRFSQLPSAFYTLVEPQPLDNTRWVAWNGEFAQQFGLPAAQNDELLAVFSGQSEFEPFRPLAMKYAGHQFGVYNPDLGDGRGLLLAEIEHQNGTWFDIHLKGAGLTPYSRMGDGRAVLRSTIREYLCSEAMAGLGIPTTRALGMVVSDTPVYREKTEFGAMLIRMAETHVRFGHFEHLFYTNQLAEQKLLADKVIEWHFADCASAEKPYAAMFGEIVQKTADMIAYWQAYGFAHGVMNTDNMSILGQTFDYGPFGFLDDYEPGYICNHSDYQGRYAFEQQPRIALWNLSALAHALSPLVEREDLEQALSQFEGRLSQQFSRLMRSKLGLKTKIAEDGRLFESMFELLNQNHTDYTRFFRALSNLDKQPAQEVIDLFIDREAAQAWLDLYLARCELEVDEIGEPISAEQRSEQMRQTNPKYILRNYLAQLAIDKAEEGDFSEVHRLAEILRHPYDSQPEFEAYAKLPPEWGKKMEISCSSLEHHHHHH", "soluble on expression in E. coli": "not soluble"}
{"sequence": "MSKAEFQKFHDEMKALKNAGKHDEFAKKFAAKDAVFIGPLHDPCTADEAAKLAQSDKMAALVKADFDVKIDEVTQIGDVVVERCSISAKLPTGDKNGWSLTVWVKEGGAWKIRNSCITFKAPIPQ", "soluble on expression in E. coli": "not soluble"}
{"sequence": "MSKAIKQNLADSKKMSAELFCLTYGAMVTEMLKDYEDPKDVTIQLDKMGFNMGTRLADDFLAKNANVPRCVDTRQIADVLCRNAIPCYLGISATASSWTSGDREFTITLEANPLTELVQVPAHLVSAGLSYSQLIAGAIRGALEAVHFKVYASATDTGANTEIRIRFDQVLKDSLPAGEDD", "soluble on expression in E. coli": "not soluble"}
{"sequence": "MSKATTPGDQPKVSEMDFYQLLGVEKMASEAEIKSAYRKLALKYHPDRNPNDAHAQEEFKKVSIAYSVLSDPNKRRQYDVSGPSENQLDFEGFDVSEMGGVGRVFGALFSKLGVPIPTQIVPKVLAQARHICMGQECDVQARQLPPGETVTSSVSKQHAHFYEINIQEEHRKNGVAIICKSSSSKFKLVLFDKEGGVRMIQESGKRGKAGTQADMFFVPYNVANIQEFNAMKYHLEDKETPLAFHYLDSFEMQTATLLETRKHYIAVYGDNWISDVKYSITFLPVEPSAVEQLNEIQDTEKSISIIKKEMLDFQREFTEAKRKYDEAVAKLKVQDDTILKALAHREELYNEVLQKSQEPYNKKVSPSKSSGGLLGWFK", "soluble on expression in E. coli": "not soluble"}
